Patent publication US11814435B2, “Therapeutic antibodies and their uses” (PFIZER INC., priority 2015, dated 2023)
Residue numbers refer to the chain shown, from its start. Values belong to the molecule of their own block, whether it stands above or below them.

Columns and labels:
cyBCMA = experiment: Kinetics and affinity of cyBCMA/human IgG interactions by SPR (Bio-Rad Proteon XPR36); assay type: binding, cynomolgus; settings: 37° C.
hBCMA (human BCMA) = target: T1, hBCMA (human BCMA) (Homo sapiens, UniProt Q02223); experiment: Kinetics and affinity of hBCMA/human IgG interactions by SPR (Bio-Rad Proteon XPR36); assay type: binding; settings: huBCMA, 37° C.
T1 sequence (Q02223 1-184): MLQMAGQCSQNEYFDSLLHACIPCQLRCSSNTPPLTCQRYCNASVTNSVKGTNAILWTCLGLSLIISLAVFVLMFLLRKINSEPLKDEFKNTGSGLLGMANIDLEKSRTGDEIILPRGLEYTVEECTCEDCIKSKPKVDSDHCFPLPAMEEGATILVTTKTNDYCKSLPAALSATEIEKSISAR
Description: All experiments were performed on a Bio-Rad Proteon XPR36 surface Plasmon resonance biosensor (Bio-Rad, Hercules, Calif.). An array of anti-BCMA antibodies was prepared using an amine-coupling method on a Bio-Rad GLC Sensor Chip similar to that described in Abdiche, et al., Anal. Biochem. 411, 139-151 (2011). The analysis temperature for the immobilization was 25° C. and the running buffer was HBS-T+(10 mM HEPES, 150 mM NaCl, 0.05% Tween-20, pH 7.4). Channels were activated in the analyte (horizontal) direction by injecting a mixture of 1 mM ECD and 0.25 mM NHS for 3 minutes at a flow rate of 30 μL/min. IgGs were immobilized on the activated spots by injecting them in the ligand (vertical) direction at 20 μg/mL in 10 mM Acetate pH 4.5 buffer for 1.5 minutes at […]. The activated surfaces were blocked by injecting 1M ethanolamine, pH 8.5 in the analyte direction for 3 minutes at 30 μL/min.
The analysis temperature for the hBCMA binding analysis was 37° C. or 25° C. in a running buffer of HBS-T+, supplemented with 1 mg/mL BSA. A kinetic titration method was employed for the interaction analysis as described in Abdiche, et al. The hBCMA (human BCMA) analyte was injected in the analyte direction using a series of injections from low to high concentration. The concentrations used were 0.08 nM, 0.4 nM, 2 nM, 10 nM and 50 nM (a 5-membered series, with a 5-fold dilution factor and top concentration of 50 nM). The association time for a given analyte dilution was two minutes. Immediately after the 50 nM hBCMA injection, dissociation was monitored for 2 hours. Prior to the hBCMA analyte injections, buffer was injected 5 times using the same association and dissociation times at the hBCMA analyte cycles to prepare a buffer blank sensorgram for double-referencing purposes (double referencing as described in Myszka, J. Mol. Recognit. 12, 279-284 (1999).
The sensorgrams were double-referenced and fit to a 1:1 Langmuir with mass transport kinetic titration model in BIAevaluation Software version 4.1.1 (GE Lifesciences, Piscataway, N.J.). The sensorgrams and fits are shown in FIG. 1, and the kinetics and affinity parameters for various anti-BCMA antibodies of the present invention are shown in Tables 6A-6C.

kd (1/s) cyBCMA @37° C. (cyBCMA): 0.00658 s⁻¹
ka (1/Ms) huBCMA @ 37° C. (hBCMA (human BCMA)): 2.56e+06 M⁻¹ s⁻¹
kd (1/s) huBCMA @37° C. (hBCMA (human BCMA)): 0.00119 s⁻¹
B1: L3.PY/H2.QR: anti-BCMA antibody (antibody, V domains shown)
VH: EVQLLESGGGLVQPGGSLRLSCAASGFTFGSYAMTWVRQAPGKGLEWVSAISGSGGNTFYADQRKGRFTISRDNSKNTLYLQMNSLRAEDTAVYYCARVSPIASGMDYWGQGTLVTVSS
VL: EIVLTQSPGTLSLSPGERATLSCRASQSVSSSYLAWYQQKPGQAPRLLIYGASSRATGIPDRFSGSGSGTDFTLTISRLEPEDFAVYYCQHYPYPPSFTFGQGTKVEIK
ka (1/Ms) cyBCMA @ 37° C. (cyBCMA): 2.18e+06 M⁻¹ s⁻¹

kd (1/s) cyBCMA @37° C. (cyBCMA): 0.00269 s⁻¹
ka (1/Ms) huBCMA @ 37° C. (hBCMA (human BCMA)): 3.3e+06 M⁻¹ s⁻¹
kd (1/s) huBCMA @37° C. (hBCMA (human BCMA)): 0.0106 s⁻¹
B2: L3.PY/L1.PS/H2.HA: anti-BCMA antibody (antibody, V domains shown)
VH: B1 VH with G53H, S54A, Q63S, R64V
VL: B1 VL with L34P, A35S
ka (1/Ms) cyBCMA @ 37° C. (cyBCMA): 1.45e+06 M⁻¹ s⁻¹

kd (1/s) cyBCMA @37° C. (cyBCMA): 0.00552 s⁻¹
ka (1/Ms) huBCMA @ 37° C. (hBCMA (human BCMA)): 3.25e+06 M⁻¹ s⁻¹
kd (1/s) huBCMA @37° C. (hBCMA (human BCMA)): 0.00246 s⁻¹
B3: L3.PY/L1.PS/H3.TAQ: anti-BCMA antibody (antibody, V domains shown)
VH: B1 VH with Q63S, R64V, A97T, S104A, G105Q
VL: B1 VL with L34P, A35S
ka (1/Ms) cyBCMA @ 37° C. (cyBCMA): 2.58e+06 M⁻¹ s⁻¹

kd (1/s) cyBCMA @37° C. (cyBCMA): 0.00491 s⁻¹
ka (1/Ms) huBCMA @ 37° C. (hBCMA (human BCMA)): 3.13e+06 M⁻¹ s⁻¹
kd (1/s) huBCMA @37° C. (hBCMA (human BCMA)): 0.00181 s⁻¹
B4: L3.PY/L1.AH/H2.QR: anti-BCMA antibody (antibody, V domains shown)
VH: B1 VH
VL: B1 VL with S31A, S32H
ka (1/Ms) cyBCMA @ 37° C. (cyBCMA): 2.2e+06 M⁻¹ s⁻¹

kd (1/s) cyBCMA @37° C. (cyBCMA): 0.00374 s⁻¹
ka (1/Ms) huBCMA @ 37° C. (hBCMA (human BCMA)): 3.35e+06 M⁻¹ s⁻¹
kd (1/s) huBCMA @37° C. (hBCMA (human BCMA)): 0.0043 s⁻¹
B5: L3.PY/L1.PS/H2.YQ: anti-BCMA antibody (antibody, V domains shown)
VH: B1 VH with G53Y, S54Q, Q63S, R64V
VL: B1 VL with L34P, A35S
ka (1/Ms) cyBCMA @ 37° C. (cyBCMA): 2e+06 M⁻¹ s⁻¹

kd (1/s) cyBCMA @37° C. (cyBCMA): 0.00757 s⁻¹
ka (1/Ms) huBCMA @ 37° C. (hBCMA (human BCMA)): 2.4e+06 M⁻¹ s⁻¹
kd (1/s) huBCMA @37° C. (hBCMA (human BCMA)): 0.00129 s⁻¹
B6: L3.PY/H2.LT: anti-BCMA antibody (antibody, V domains shown)
VH: B1 VH with G53L, S54T, Q63S, R64V
VL: B1 VL
ka (1/Ms) cyBCMA @ 37° C. (cyBCMA): 2.09e+06 M⁻¹ s⁻¹

kd (1/s) cyBCMA @37° C. (cyBCMA): 0.00621 s⁻¹
ka (1/Ms) huBCMA @ 37° C. (hBCMA (human BCMA)): 2.58e+06 M⁻¹ s⁻¹
kd (1/s) huBCMA @37° C. (hBCMA (human BCMA)): 0.00156 s⁻¹
B7: L3.PY/H2.YQ: anti-BCMA antibody (antibody, V domains shown)
VH: B1 VH with G53Y, S54Q, Q63S, R64V
VL: B1 VL
ka (1/Ms) cyBCMA @ 37° C. (cyBCMA): 2.46e+06 M⁻¹ s⁻¹

kd (1/s) cyBCMA @37° C. (cyBCMA): 0.0126 s⁻¹
ka (1/Ms) huBCMA @ 37° C. (hBCMA (human BCMA)): 2.64e+06 M⁻¹ s⁻¹
kd (1/s) huBCMA @37° C. (hBCMA (human BCMA)): 0.00218 s⁻¹
B8: L3.PY/H2.QL: anti-BCMA antibody (antibody, V domains shown)
VH: B1 VH with R64L
VL: B1 VL
ka (1/Ms) cyBCMA @ 37° C. (cyBCMA): 2.05e+06 M⁻¹ s⁻¹

kd (1/s) cyBCMA @37° C. (cyBCMA): 0.00067 s⁻¹
ka (1/Ms) huBCMA @ 37° C. (hBCMA (human BCMA)): 3.97e+06 M⁻¹ s⁻¹
kd (1/s) huBCMA @37° C. (hBCMA (human BCMA)): 0.103 s⁻¹
B9: L3.PY/L1.PS/H2.QR: anti-BCMA antibody (antibody, V domains shown)
VH: B1 VH
VL: B1 VL with L34P, A35S
ka (1/Ms) cyBCMA @ 37° C. (cyBCMA): 525000 M⁻¹ s⁻¹
